Results taken from patent publication US20060121510.

Tested on: calmodulin (3′,5′-cyclic nucleotide phosphodiesterase activator, Sigma)

Substance: 3′,5′-cyclic nucleotide phosphodiesterase (activator deficient from bovine brain, Sigma)
- hydrolysis of 3′,5′-cyclic AMP to 5′-AMP during a 40 min preincubation (enzyme activity): more than 90% is destroyed in a similar reaction containing calmodulin
